Laboratory results reported in patent US20090130114A1 (Amgen, published 2009).
Numbering of substitutions follows the chain as printed.

T1: human WISE (human, UniProt Q6X4U4 24-206)
T1 construct: Recombinant, made in E. coli or mammalian cells; biotinylated in the ELISAs, amine-coupled to CM5 in Biacore; also called huWise; huWISE
T1 sequence: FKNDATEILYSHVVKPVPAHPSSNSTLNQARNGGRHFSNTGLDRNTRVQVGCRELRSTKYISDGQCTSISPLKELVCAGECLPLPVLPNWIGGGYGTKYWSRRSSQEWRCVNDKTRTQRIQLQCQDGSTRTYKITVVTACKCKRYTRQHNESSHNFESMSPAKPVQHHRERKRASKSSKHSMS

B1: Ab-1 (antibody, human IgG2, lambda, V domains shown)
VH: QVQLVQSGAEVKKPGSSVKVSCKASGGTFSSTYISWVRQAPGQGLEWMGWIYAGTGGTRYNRKFTGRVTITADESTSTAYMELSSLRSEDTAVYYCAREGVDGWFTYWGQGTLVTVSS
VL: QSVVTQPPSVSGAPGQRVTMSCTGSSSNLGAGYDVNWYQQLPGKAPKVLIYGNEIRPSGVPDRFSGSKSDTSATLDITGLQTGDEADYYCETWDSSLSTVVFGGGTKLTVLG
notes: Phage-derived human light chain with the humanized Ab-C IgG2 heavy chain, transiently expressed in 293 6E cells
B2: Ab-13 (antibody, human IgG2, kappa, V domains shown)
VH: B1 VH
VL: DIQMTQSPSSLSASVGDRVTITCRASQSISEYLNWYQQKPGQAPRLLIYGVSTRATGIAARFSGSGSGTDFTLTISSLQPEDSAVYYCQQDYNVPYTFGQGTKLEIKR
notes: Phage-derived human light chain with the humanized Ab-C IgG2 heavy chain
B3: Ab-16 (antibody, human IgG2, kappa, V domains shown)
VH: B1 VH
VL: DIQLTQSPFSLSASVGDRVTITCRASQSINDNLNWYLQKPGKAPKLLIFAASTSQSGVPSRFSGNGFGTDFSLIISGLQPEDVGTYYCQQNDSMPFTFGQGTRLDIKR
notes: as for B2
B4: Ab-18 (antibody, human IgG2, kappa, V domains shown)
VH: B1 VH
VL: DIQLTQSPSSLSASVGDRVTITCQASQDINNYLSWYQQKPGKAPKVLIYDTSNLETGVPSRFSGSGSGTDFTFTISSLQPEDIATYYCQQSDNLPYTFGQGTKLEIKR
notes: as for B2
B5: Ab-23 (antibody, human IgG2, kappa, V domains shown)
VH: B1 VH
VL: DIQMTQSPGTLSLSPGERATLFCRASQRVSSSYLAWYQQRPGQAPRLLMYGTSSWATGIPDRFSGSGSGTDFTLTISSLQPEDFATYYCQQSSSIPYTFGQGTKLEIKR
notes: as for B2
B6: Ab-24 (antibody, human IgG2, kappa, V domains shown)
VH: B1 VH
VL: ETTLTQSPALLSLSPGERATLSCRASQTLSFDFFAWYQQKPGQAPSLLISGISTRAAGVPDRFSGSGSGTDFTLTIDRLEPEDFAVYFCQQSSSLPLTFGGGTKVEIRR
notes: as for B2
B7: Ab-28 (antibody, human IgG2, kappa, V domains shown)
VH: B1 VH
VL: DIQMTQSPSSLSASVGDRVTITCRASQSISDYLNWYQQRPGKAPNLLIFASNTLQGGVPSRFRGSGSGTDFTLTINSLQHEDFGTYYCQQSYRTPLTFGGGTKVEIKR
notes: as for B2
B8: Ab-29 (antibody, human IgG2, kappa, V domains shown)
VH: B1 VH
VL: DIQMTQSPLSLSASVGDRVAITCRASQSISDSLNWYQQKPGKPPKIVIYAASGLPSGVPSRFSGGGSGTDFTLVISTLQPEDFATYYCQQSYSAPLTFGGGTKVEISR
notes: as for B2
B9: Ab-48 (antibody, human IgG2, kappa, V domains shown)
VH: B1 VH
VL: DIQMTQSPSSLSASIGDRVTITCQASQDINNYLNWYQQKQGKAPKVLIFDASNLAAGVPSRFSGSGSGTDFTLTISSLQPEDIATYYCQQYDNLPLTFGQGTKVDNKR
notes: as for B2
B10: Ab-60 (antibody, human IgG2, lambda, V domains shown)
VH: B1 VH
VL: QSVVTQPPAVSGAPGQRITISCTGSSSNIGAGYDVHWYQQFPGTAPKVLIFANDYRPSGVPDRFSASKSATSASLAIRGLQSEDEADYYCQSYDNRLSGYVFGTGTKVTVLG
notes: as for B2
B11: Ab-62 (antibody, human IgG2, lambda, V domains shown)
VH: B1 VH
VL: QAVLTQPSSVSGAPGRRVTISCTGSSSNIGAGYDVHWYQQLPGKAPKLVISANTNRPSGVPDRFSGSKSGTSASLAITGLQAEDEADYYCQSYDNSVSAYVFGTGTKVTVLG
notes: as for B2
B12: Ab-63 (antibody, human IgG2, lambda, V domains shown)
VH: B1 VH
VL: QSALTQTPSVSGTPGQRVTISCTGSRSNIGAGYDVQWYQQFPGTAPRLLIYANNIRSSGVPDRFSGSKSGTSASLAITGLQAEDEATYYCQSYDRSLSGYVFGTGTEVTVVG
notes: as for B2
B13: Ab-65 (antibody, human IgG2, lambda, V domains shown)
VH: B1 VH
VL: QSVLTQPPSVSGAPGQRVTISCTGSSSNIGAGYDVHWYQQLPRTAPKLLIYGDTNRPSGVPDRFSGSKSGTSASLAITGLQTEDEADYYCQSYDSSLRAYVFGTGTKVTVLG
notes: as for B2
B14: Ab-66 (antibody, human IgG2, lambda, V domains shown)
V domain 1: QSVVTQPPSVSGAPGQRVTISCTGSSSNIGAGYDVHWYQQLPGAAPKVLIFGNNNRPSGIPDRVSGSKSGTSASLAISGLQTEDEAVYYCQSYDSSLSAYVFGGGTQVTVLG
V domain 2: B1 VH
notes: as for B2
B15: light chain of SEQ ID NO: 104 paired with the heavy chain of SEQ ID NO: 24 (antibody, human IgG2, lambda, V domains shown)
VH: B1 VH
VL: NFMLTQPHSVSESPGKTVTISCTRNSGSIASNYVQWYQQRPGSSPATVIYEDNQRPSGVPDRFSGSIDISSNSASLTISGLKTEDEADYYCQSYDSSNPFYVFGTGTKVTVLG
notes: as for B2
B16: light chain of SEQ ID NO: 106 paired with the heavy chain of SEQ ID NO: 24 (antibody, human IgG2, lambda, V domains shown)
VH: B1 VH
VL: NFMLTQPHSVSESPGKTITISCTRSSGSISSNYVQWYQQRPGSSPRIVMSEDDQRPSGVSDRFSGSIDISSNSAFLTISGLKPEDEGDYYCQSYDTDIPYVFGTGTKVTVLG
B17: light chain of SEQ ID NO: 108 paired with the heavy chain of SEQ ID NO: 24 (antibody, human IgG2, kappa, V domains shown)
VH: B1 VH
VL: DIQMTQSPSSLSASVGDRITISCQASQDIDNYLNWYQQKSGKAPKLLIYDAYNLKAGVPSRFRGSRSGTDFFLTISSLQPEDFATYYCLQQYRYPLTFGGGTKVEIKR
B18: light chain of SEQ ID NO: 118 paired with the heavy chain of SEQ ID NO: 24 (antibody, human IgG2, kappa, V domains shown)
VH: B1 VH
VL: B17 VL with S9D, K39R, A84G, Y92S, R93S, G100Q
B19: light chain of SEQ ID NO: 110 paired with the heavy chain of SEQ ID NO: 24 (antibody, human IgG2, lambda, V domains shown)
VH: B1 VH
VL: QSVLTQPPSVSGAPGQRVTISCTGGSSNIGAGYEVHWYQLVPGRAPRFLIHGDNDRPSGVPDRFSASESGSSSFLAISGLQDDDEADYYCQSYDTSLSAWVFGGGTKLTVLG
B20: light chain of SEQ ID NO: 112 paired with the heavy chain of SEQ ID NO: 24 (antibody, human IgG2, kappa, V domains shown)
VH: B1 VH
VL: DIQMTQSPGTLSLSPGERATLSCRTSQSVSSTSVAWYQQKPGQAPRLLMYDASSRAAGIPDRFSGSGSVTDFTLTISRLEPEDFATYYCQQSYSLPYTFGQGTKVEIKR
B21: light chain of SEQ ID NO: 114 paired with the heavy chain of SEQ ID NO: 24 (antibody, human IgG2, kappa, V domains shown)
VH: B1 VH
VL: NIQMTQSPGTLSLSPGERATLSCRASQSVTGNHLAWYQQKPGQAPRVLMYDTSSRATGIPDRFSGSGSGTDFTLTISSLQPEDIATYYCQQFDNLPYTFGQGTKLEIKR
B22: light chain of SEQ ID NO: 116 paired with the heavy chain of SEQ ID NO: 24 (antibody, human IgG2, kappa, V domains shown)
VH: B1 VH
VL: DIQMTQSPSSLSASVGDRVTITCRASRDISVYVNWYQLKPGQAPRLLIYGASNLGFGVPSRFSGSGYGTDFALTISGLQPEDFATYSCQQSYSIPLTFGQGTRVDTKR

Biological target: T1, human WISE
Test: assay not specified (IgG2 from transient transfection)

Row | Binder | binding result
1 | B1 | binds
2 | B2 | binds
3 | B3 | binds
4 | B4 | binds
5 | B5 | binds
6 | B6 | binds
7 | B7 | binds
8 | B8 | binds
9 | B9 | binds
10 | B10 | binds
11 | B11 | binds
12 | B12 | binds
13 | B13 | binds
14 | B14 | binds
15 | B15 | binds
16 | B16 | binds
17 | B17 | binds
18 | B18 | binds
19 | B19 | binds
20 | B20 | binds
21 | B21 | binds
22 | B22 | binds
